Values quoted from earlier work, collected in PMC5488128 (CPT: Pharmacometrics & Systems Pharmacology, 2017).

Assays:
[1] = subcutaneously applied, tested up to 30U
[2] = system: glucose infusion rate (GIR); settings: type-1 patients, up to 90U insulin Lispro, GIR recording time of 12 h

In the case of “RHI: subcutaneously (s.c.) administered regular human insulin”, the “dose proportionality of exposure” value [1] is listed as “dose‐proportional”.

In the case of “insulin lispro: prandial insulin analog, comparator in clamp study NCT02470637”, the ED50 [2] is listed as 51 U.
